Data set [1] concerns RNA polymerase III (Homo sapiens). As to conditions: 90 min IVT from 100 nM coligo; 6 mM MgCl2; abolished by 120 ug/ml alpha-amanitin.
Data set [2] has as its system TS2126 RNA ligase 1 (Bacteriophage TS2126). As to conditions: 5' phosphate; splintless circularization, 2.5 mM MnCl2, 50 uM ATP, 60 C, 2 h.
In data set [3] the test system is RNA polymerase III (Homo sapiens). The conditions noted are these: HEK293T WCE transcription; mainly single round.
The target in data set [4] is RNA polymerase II (UniProt P04050;P08518;P16370;P20433;P20434;P20435;P34087;P20436;P27999;P22139;P38902;P40 …). Kind of data set: in vitro transcription processivity, 1 uM template, 37 C. The conditions noted are these: tags: yeast RNAP II from D. Bushnell and R. Kornberg; circular, stem-loop. From the text: (§1) Chem. Soc. 117, 7818-7819 (1995)) (FIG. 5b, gel region “a”). As a relative measure of transcriptional processivity, we calculated the ratio of the radioactivity incorporated in the rolling circle transcripts (FIG. 5b, gel region “a” in lanes 3, 6, 9) to the sum of all shorter transcripts (gel region “b”). Lower a/b ratios indicate lower processivity. […] Thus, the ability to initiate promoterless transcription on coligo templates appears to have been retained during RNAP evolution, while the processivity needed for RCT appears to have been lost.
(§2) In vitro transcription (IVT). IVT using WCE, uniform labeling with [α-³²P]-UTP and the linear or circular (coligo) templates was performed as follows. A typical 20 μl reaction contained 25 μg total WCE protein, 20 units RNase inhibitor (Promega) 1.25 mM each ATP, CTP, GTP, 0.2 mM UTP, (except FIG. 5b, which contained 1.25 mM each NTP), ˜2 μCi [α-³²P]-UTP, 40 mM Tris-HCl pH 7.9, 6 mM MgCl₂, 10 mM DTT, 2 mM spermidine, 100 μM NaCl); 100 nM template unless otherwise indicated. IVT using E. coli RNA polymerase (USB) was carried out in 40 mM Tris-HCl, pH 8.0, 10 mM MgCl₂, 5 mM DTT, 50 mM KCl, 50 μg/ml BSA), 1 μM coligo template, 1.25 mM NTP, ˜2 μCi [α-³²P]-UTP, 1 unit/μl RNAse inhibitor. […] Images and quantitation were performed using MD ImageQuant software. […]

Data set [5] deals with RNA polymerase (Escherichia coli, UniProt P0A7Z4;P0A8V2;P0A8T7;P0A800 P0A7Z4:1-329,P0A8V2:1-1342,P0A8T7:1-1407,P0A800:2-91). The data set can be described thus: in vitro transcription processivity, 10 mM MgCl2, 37 C. The conditions noted are these: tags: USB; chain copies: 2,1,1,1; circular, stem-loop.
Chain of RNA polymerase (P0A7Z4 whole entry, chain 1 of 4): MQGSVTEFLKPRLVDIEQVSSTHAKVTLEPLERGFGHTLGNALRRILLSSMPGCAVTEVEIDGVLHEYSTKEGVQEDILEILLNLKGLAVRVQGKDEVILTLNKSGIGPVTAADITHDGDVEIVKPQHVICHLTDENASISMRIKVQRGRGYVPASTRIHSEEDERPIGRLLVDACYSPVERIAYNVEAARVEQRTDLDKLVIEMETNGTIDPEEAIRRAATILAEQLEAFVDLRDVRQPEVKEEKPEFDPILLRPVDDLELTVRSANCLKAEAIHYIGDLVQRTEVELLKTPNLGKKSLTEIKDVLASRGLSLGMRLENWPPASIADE
Chain of RNA polymerase (P0A8V2 whole entry, chain 2 of 4): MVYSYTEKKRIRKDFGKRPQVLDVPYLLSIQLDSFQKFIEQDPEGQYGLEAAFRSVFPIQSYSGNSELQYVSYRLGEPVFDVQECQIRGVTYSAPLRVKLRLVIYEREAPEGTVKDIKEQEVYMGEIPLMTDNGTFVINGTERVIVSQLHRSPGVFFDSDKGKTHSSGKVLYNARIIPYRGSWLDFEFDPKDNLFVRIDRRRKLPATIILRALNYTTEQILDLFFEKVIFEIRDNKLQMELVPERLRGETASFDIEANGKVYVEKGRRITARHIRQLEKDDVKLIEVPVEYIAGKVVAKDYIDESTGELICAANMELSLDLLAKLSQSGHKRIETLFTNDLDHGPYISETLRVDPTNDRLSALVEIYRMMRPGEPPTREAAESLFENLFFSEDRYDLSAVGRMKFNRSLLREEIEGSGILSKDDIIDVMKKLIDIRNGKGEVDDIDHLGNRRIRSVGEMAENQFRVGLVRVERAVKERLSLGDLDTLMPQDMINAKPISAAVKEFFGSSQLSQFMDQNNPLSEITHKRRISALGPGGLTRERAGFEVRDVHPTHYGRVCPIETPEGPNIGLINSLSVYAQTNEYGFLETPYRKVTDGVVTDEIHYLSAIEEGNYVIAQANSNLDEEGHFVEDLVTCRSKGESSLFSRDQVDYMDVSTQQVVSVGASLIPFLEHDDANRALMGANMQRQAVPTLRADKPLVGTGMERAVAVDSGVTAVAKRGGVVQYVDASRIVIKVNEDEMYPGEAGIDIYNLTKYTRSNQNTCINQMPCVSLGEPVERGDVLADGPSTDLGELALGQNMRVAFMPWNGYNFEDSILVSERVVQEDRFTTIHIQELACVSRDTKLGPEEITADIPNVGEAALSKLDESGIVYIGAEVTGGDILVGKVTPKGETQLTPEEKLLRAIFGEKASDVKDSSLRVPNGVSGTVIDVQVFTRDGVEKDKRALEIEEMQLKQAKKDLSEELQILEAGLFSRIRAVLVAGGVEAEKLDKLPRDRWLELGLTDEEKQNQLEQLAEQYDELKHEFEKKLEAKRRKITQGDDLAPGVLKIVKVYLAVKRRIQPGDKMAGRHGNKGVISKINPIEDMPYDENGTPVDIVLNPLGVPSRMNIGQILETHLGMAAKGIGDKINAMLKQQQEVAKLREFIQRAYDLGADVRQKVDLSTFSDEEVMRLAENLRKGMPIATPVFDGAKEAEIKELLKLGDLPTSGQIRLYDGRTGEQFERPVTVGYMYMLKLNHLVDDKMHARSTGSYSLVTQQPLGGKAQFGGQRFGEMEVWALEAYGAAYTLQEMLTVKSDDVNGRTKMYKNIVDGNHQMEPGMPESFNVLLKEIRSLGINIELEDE
Chain of RNA polymerase (P0A8T7 whole entry, chain 3 of 4): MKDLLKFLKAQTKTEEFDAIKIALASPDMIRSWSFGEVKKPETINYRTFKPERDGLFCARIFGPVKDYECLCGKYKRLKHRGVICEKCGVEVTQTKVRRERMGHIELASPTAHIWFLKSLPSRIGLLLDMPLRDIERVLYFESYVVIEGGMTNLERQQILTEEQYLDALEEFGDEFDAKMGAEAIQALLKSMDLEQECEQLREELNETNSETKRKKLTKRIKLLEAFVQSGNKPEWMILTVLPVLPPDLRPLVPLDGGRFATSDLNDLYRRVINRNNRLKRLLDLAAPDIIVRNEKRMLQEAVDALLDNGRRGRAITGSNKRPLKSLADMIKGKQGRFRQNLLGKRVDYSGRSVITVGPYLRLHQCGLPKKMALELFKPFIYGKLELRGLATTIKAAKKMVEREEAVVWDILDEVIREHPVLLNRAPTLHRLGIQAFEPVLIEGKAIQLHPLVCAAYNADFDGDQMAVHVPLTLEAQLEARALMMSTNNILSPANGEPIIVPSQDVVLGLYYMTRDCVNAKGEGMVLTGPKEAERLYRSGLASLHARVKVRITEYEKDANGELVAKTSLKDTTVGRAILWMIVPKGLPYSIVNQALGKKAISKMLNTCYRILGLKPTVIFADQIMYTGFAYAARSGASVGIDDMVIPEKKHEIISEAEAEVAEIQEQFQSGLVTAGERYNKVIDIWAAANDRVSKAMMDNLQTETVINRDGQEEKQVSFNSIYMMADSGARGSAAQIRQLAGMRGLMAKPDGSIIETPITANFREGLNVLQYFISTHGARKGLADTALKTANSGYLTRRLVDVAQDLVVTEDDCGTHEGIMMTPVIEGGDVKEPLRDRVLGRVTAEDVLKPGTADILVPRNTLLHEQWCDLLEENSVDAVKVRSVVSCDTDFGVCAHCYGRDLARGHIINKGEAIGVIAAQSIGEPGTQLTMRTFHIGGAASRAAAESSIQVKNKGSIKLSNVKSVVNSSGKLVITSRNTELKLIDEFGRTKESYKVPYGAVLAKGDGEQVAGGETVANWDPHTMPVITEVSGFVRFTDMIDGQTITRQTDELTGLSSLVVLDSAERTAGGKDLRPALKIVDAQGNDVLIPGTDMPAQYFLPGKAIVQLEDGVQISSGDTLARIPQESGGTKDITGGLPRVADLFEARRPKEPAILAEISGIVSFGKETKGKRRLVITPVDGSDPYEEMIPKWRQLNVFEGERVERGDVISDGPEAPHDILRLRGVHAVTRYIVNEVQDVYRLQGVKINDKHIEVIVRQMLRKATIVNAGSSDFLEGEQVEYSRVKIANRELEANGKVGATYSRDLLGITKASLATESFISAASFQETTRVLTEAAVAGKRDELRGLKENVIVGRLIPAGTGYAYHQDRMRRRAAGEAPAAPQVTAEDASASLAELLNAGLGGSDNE
Chain of RNA polymerase (P0A800 2-91, chain 4 of 4): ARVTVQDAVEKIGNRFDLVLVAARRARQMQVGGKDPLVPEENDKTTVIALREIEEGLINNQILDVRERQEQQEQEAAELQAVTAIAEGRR
Excerpt: as §1, §2

The text below walks through data of patent US20130245102, “NOVEL DNA TEMPLATES FOR SMALL RNA PRODUCTION IN MAMMALIAN CELLS” (Research Foundation of the City University of New York, published 2013).

“CTCAGATCTGCCTGCAACTATGCAAAACTAACAGAGGACTGCAAACAAAAACTAGAAGGAAATAGCAGGCCACCATCAGTTTTGCATAGATTTGCACAACGGCAGAGAGCTCCCAGG [coligo 19aTAR (19am)]” gave an activity (nM transcript) in data set [1] of 0.6.
“CTCAGATCTGCCTGCAACTATGCAAAACTAACAGAGGACTGCAAACAAAAACTAGAAGGAAATAGCAGGCCACCATCAGTTTTGCATAGATTTGCACAACGGCAGAGAGCTCCCAGG [linear 19aTAR]” displayed an activity (% cyclization) in data set [2] of 73.
With “TTGCCTAGCAGTAGCTATTTAGTGTGATAATGGCGTTTGATAGTTTAGACACAAACACCATTGTCACACTCCACAGCTCTGCTAAGGAA [coligo 122]”, the binding signal (RCT/short transcript ratio) in data set [3] was 0.01.

B1: coligo 122 (structured_DNA)
DNA: TTGCCTAGCAGTAGCTATTTAGTGTGATAATGGCGTTTGATAGTTTAGACACAAACACCATTGTCACACTCCACAGCTCTGCTAAGGAA
As for B1, the “transcriptional processivity (rolling-circle/short transcript ratio)” value in data set [4] was 0.3 RCT/short transcript ratio. Besides, in data set [5], the binding signal is 2.3 RCT/short transcript ratio.
